Data as given in paper PMC6166240 (Cell reports, 2018).

Molecular target: T1, Extradenticle (Exd), residues 237-310 of isoform A (homeodomain and ten further residues) (Drosophila)
T1 chain: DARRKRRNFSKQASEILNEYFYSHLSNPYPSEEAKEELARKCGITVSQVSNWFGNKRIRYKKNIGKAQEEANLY
Assay: crystal structure

B1: Abdominal-B (AbdB), residues 146-229 of isoform A (W motif, linker and homeodomain) (domain or fragment)
chain: not shown
binding result: binds
